Entries after “also recorded” stand apart in the source; their conditions may differ.
B1: Del263-279: small internal STARS deletion mutant within the conserved region (protein)
chain: MAPGEKESGEGPAKSALRKIRTATLVISLARGWQQWANENSIRQAQEPTGWLPGGTQDSPQAPKPITPPTSHQKAQSAPKSPPRLPEGHGDGQSSEKAPEVSHIKKKEVSKTVVSKTYERGGDVSHLSHRYERDAGVLEPGQPENDIDRILHSHGSPTRRRKCANLVSELTKGWRVMEQEEPTWRSDSVDTEDSGYGGEAEERPEQDGVQVAVVRIKRPLPSQVNRFTEKLNCKAQQKYSPVGNLKGRWQQWADEHIQSQKLHKGDEGYGRPKEGTKTAERAKRAEEHIYREMMDMCFIICTMARHRRDGKIQVTFGDLFDRYVRISDKVVGILMRARKHGLVDFEGEMLWQGRDDHV
modifications: left off: small tags and cut ends
notes: small internal STARS deletion mutant within the conserved region
B2: Del248-262: small internal STARS deletion mutant within the conserved region (protein)
chain: MAPGEKESGEGPAKSALRKIRTATLVISLARGWQQWANENSIRQAQEPTGWLPGGTQDSPQAPKPITPPTSHQKAQSAPKSPPRLPEGHGDGQSSEKAPEVSHIKKKEVSKTVVSKTYERGGDVSHLSHRYERDAGVLEPGQPENDIDRILHSHGSPTRRRKCANLVSELTKGWRVMEQEEPTWRSDSVDTEDSGYGGEAEERPEQDGVQVAVVRIKRPLPSQVNRFTEKLNCKAQQKYSPVGNLKGNPFSEEFDYELAMSTRLHKGDEGYGRPKEGTKTAERAKRAEEHIYREMMDMCFIICTMARHRRDGKIQVTFGDLFDRYVRISDKVVGILMRARKHGLVDFEGEMLWQGRDDHV
modifications: left off: small tags and cut ends
notes: as for B1
B3: STARS: novel 375-amino acid muscle-specific actin-binding protein, expressed from a Myc-tagged expression vector (protein, UniProt Q8BUZ1 1-375, looked up)
Actin-binding Rho-activating …: MAPGEREREAGPAKSALRKVRTATLVINLARGWQQWANENSTKQAQEPAGWLPGATHDLPNAPKEAGPYQHAPKTLSPKPDRDGEGQHSEEATEVSHIKRKEVTRTVVSKAYERGGDVNYLSHRYENDGGVSEAIQPENDIDRILLSHDSPTRRRKCTNLVSELTKGWKVMEQEEPTWKSDSVDTEDSGYGGDMEERPEQDAAPVAPARIKRPLLSQANRYSETLNCKAHRKYSQVDNLKGRWQQWADEHVQSQKLNPFSDEFDYDLAMSTRLHKGDEGYGRPKEGSKTAERAKRAEEHIYREIMELCFVIRTMARHRRDGKIQVTFGELFDRYVRISDKVVGILMRARKHGLVHFEGEMLWQGRDDHVVITLLE
modifications: Myc tag
B4: Del234-247: small internal STARS deletion mutant within the conserved region (protein)
chain: MAPGEKESGEGPAKSALRKIRTATLVISLARGWQQWANENSIRQAQEPTGWLPGGTQDSPQAPKPITPPTSHQKAQSAPKSPPRLPEGHGDGQSSEKAPEVSHIKKKEVSKTVVSKTYERGGDVSHLSHRYERDAGVLEPGQPENDIDRILHSHGSPTRRRKCANLVSELTKGWRVMEQEEPTWRSDSVDTEDSGYGGEAEERPEQDGVQVAVVRIKRPLPSQVNRFTEKLNCRWQQWADEHIQSQKLNPFSEEFDYELAMSTRLHKGDEGYGRPKEGTKTAERAKRAEEHIYREMMDMCFIICTMARHRRDGKIQVTFGDLFDRYVRISDKVVGILMRARKHGLVDFEGEMLWQGRDDHV
modifications: left off: small tags and cut ends
notes: as for B1

What was measured:
[1] = system: SM22 promoter; experiment: SM22-luciferase reporter assay in transiently transfected COS cells; format: cell-based; settings: for activation of SM22-luciferase / SRF transcription, in words: STARS and deletion mutants
From the text: (§1) STARS Expression Plasmids. STARS expression constructs were generated using the pcDNA3.1 mammalian expression vector (Invitrogen) which was modified to contain an amino-terminal Myc-tag. Constitutively active RhoA (L63) and C3 transferase in Prk5 were generously provided by Dr. Alan Hall (University College, London, United Kingdom). The SM22-luciferase reporter 1343 bp promoter has been previously described (Li et al., 1995). The smooth muscle α actin-luciferase reporter contained the 4 kb promoter region ligated into the pBL3basic vector (Promega). The ANF reporter contained the 638 bp promoter region (a generous gift from Dr. Mona Nemer, Universite de Montreal, Montreal, Quebec, Canada). The 4× cfos reporter contained four tandem copies of the cfos CArG box with flanking sequences, as described (Chang et al., 2001). CMV-lacZ (Promega) was used as an internal control for transfection efficiency.
(§2) Transient Transfections, Reporter Assays and Immunofluorescence Microscopy. COS cells were maintained in DMEM with 10% FBS. Eighteen hours after plating, the medium was changed to serum-free medium and transfections were performed at 50% confluency using FuGENE reagent-6 (Roche Molecular Biochemicals) following manufacturer's instructions. Each transfection used 0.15 μg of plasmid DNA for the reporter assays, and 0.5-1.0 μg immunohistochemistry. Cytochalasin D 2 μM (Sigma-Aldrich), and Y-27632 75 μM (Tocris) were added directly just after transfection. Latrunculin B 0.5 μM (dissolved in 10% ethanol, Calbiochem) was added 12 hr after transfection and 10% ethanol (final concentration 0.01%) was added to control wells. Cells were harvested 36 hr after transfection and their luciferase and β-galactosidase activity were measured.

[2] = system: F-actin; experiment: Immunofluorescence / Phalloidin-TRITC staining of transfected COS cells; format: cell-based; settings: transfected COS cells, Myc-tagged proteins
Description: as §2
For measuring immunofluorescence, cells were rinsed with PBS and fixed in 4% paraformaldehyde for 10 min on ice. After rinsing with PBS, COS cells were incubated in 0.1% Triton X-100 in PBS for 5 min on ice. For rat neonatal cardiomyocytes, 1% Triton X-100 in PBS was used. Cells were blocked for 20 min at room temperature in 0.5% BSA in PBS for COS cells and in 1% BSA plus 3% goat serum in PBS for rat cardiomyocytes. Then, cells were incubated with first antibody diluted in 0.5% BSA in PBS for 30-60 min at room temperature or overnight at 4° C. Anti c-myc monoclonal antibody 9E10 (Santa Cruz) was used at a 1:200 dilution. Other antibodies were anti α-actinin monoclonal antibody (1:400; Sigma-Aldrich), α-tubulin antibody (1:2000; Sigma-Aldrich) and anti-vimentin antibody (1:500; Sigma-Aldrich). Secondary antibodies were anti mouse/rabbit IgG FITC or Texas red (Vector) used at a 1:200 dilution incubated with or without Phalloidin-TRITC (1:500; Sigma Aldrich).

[3] = system: actin; experiment: Co-immunoprecipitation of Myc-tagged proteins with actin in COS cells; format: binding; settings: anti-Myc immunoprecipitation, anti-actin Western blot
Description: Western Blot and Co-immunoprecipitation Assay. Immunoprecipitation and western blot analysis was performed as described previously (Lu et al., 2000). For immunoprecipitation, cells were incubated with 1 μg anti c-myc polyclonal antibody A14 (Santa Cruz). Western blots were performed with anti-actin monoclonal antibody C4 (1:100; Roche Molecular Biochemicals) or anti c-myc monoclonal antibody 9E10 (1:1000; Santa Cruse) followed by incubation with secondary antibody HRP-conjugated anti mouse-IgG (Santa Cruse, Vector). To detect signals, blots were incubated with ECL (Santa Cruz) for 1 min, and exposed to film (Eastman Kodak Co).

[4] = system: SM22 promoter; experiment: SM22-luciferase reporter assay in F9 cells; format: cell-based; settings: low endogenous SRF expression
[5] = system: α-smooth muscle actin promoter; experiment: smooth muscle α actin-luciferase reporter assay in COS cells; format: cell-based
From the text: as §1
(§3) Transient Transfections, Reporter Assays and Immunofluorescence Microscopy. COS cells were maintained in DMEM with 10% FBS. Eighteen hours after plating, the medium was changed to serum-free medium and transfections were performed at 50% confluency using FuGENE reagent-6 (Roche Molecular Biochemicals) following manufacturer's instructions. […] Cells were harvested 36 hr after transfection and their luciferase and β-galactosidase activity were measured.

[6] = system: E1b promoter linked to four tandem copies of the CArG box from the c-fos promoter; experiment: 4× cfos CArG box reporter assay in COS cells; format: cell-based
From the text: as §1, §3

[7] = system: atrial natriuretic factor (ANF) promoter; experiment: ANF reporter assay in COS cells; format: cell-based
From the text: as §1, §3

[8] = system: cytomegalovirus promoter; experiment: cytomegalovirus promoter reporter assay; format: cell-based; settings: data not shown
From the text: as §1, §3

Row | Molecule | activation of SM22-luciferase / SRF transcription, in words ([1]; COS cells) | bundling of actin stress fibers [2] | co-immunoprecipitation with actin [3] | activation of the SM22 promoter ([1]; COS cells, STARS or RhoA (L63) expression vector alone) | increase of SM22 promoter activity by STARS ([1]; COS cells, in the presence of CD (2 μM)) [fold] | responsiveness of SM22 promoter with mutated CArG boxes ([1]; COS cells, mutSM22 reporter) | stimulation of expression of SM22 luciferase reporter ([1]; transiently transfected COS cells, STARS expression vector) [fold] | effect on the SM22 promoter [4] | stimulation of α-smooth muscle actin promoter [5] | activation of E1b promoter with four c-fos CArG boxes [6] | stimulation of ANF promoter [7] | activation of cytomegalovirus promoter [8] | association with F-actin / actin stress fibers [2] | association with F-actin / actin stress fibers ([2]; listed as STARS (wt)) | bundling of actin stress fibers ([2]; listed as STARS (wt)) | bundling of actin stress fibers ([2]; listed as Wild type STARS)
1 | B1 | activate SRF transcription | induce actin bundles | weak actin-binding activity | – | – | – | – | – | – | – | – | – | – | – | – | –
2 | B2 | activate SRF transcription | induce actin bundles | weak actin-binding activity | – | – | – | – | – | – | – | – | – | – | – | – | –
3 | B3 | activate SRF transcription | induced stress fiber formation and bundling | co-immunoprecipitated with actin | comparable levels | 18 | abolished responsiveness | 40 | minimal effect | weakly stimulated | activated | did not stimulate; also recorded: could not activate | did not activate | strongly colocalized with F-actin | strongly associates with F-actin | induces extremely thick bundles | induce actin bundles
4 | B4 | activate SRF transcription | induce actin bundles | weak actin-binding activity | – | – | – | – | – | – | – | – | – | – | – | – | –
